Legend:
[1] = biological target: recombinant soluble rat GDNFRα (rat) (UniProt Q62997); assay: binding experiments with biotinylated ligand, format not described
[2] = biological target: rat NTNRα, endogenous on embryonic rat spinal motoneurons (rat); assay: cell-based or functional assay
[3] = biological target: recombinant soluble rat GDNFRα (rat) (UniProt Q62997); assay: displacement of labelled rGDNF from soluble GDNFRα by 10 nM unlabeled NTN

Chain of recombinant soluble rat GDNFRα (rat) (Q62997 25-430 limits assumed): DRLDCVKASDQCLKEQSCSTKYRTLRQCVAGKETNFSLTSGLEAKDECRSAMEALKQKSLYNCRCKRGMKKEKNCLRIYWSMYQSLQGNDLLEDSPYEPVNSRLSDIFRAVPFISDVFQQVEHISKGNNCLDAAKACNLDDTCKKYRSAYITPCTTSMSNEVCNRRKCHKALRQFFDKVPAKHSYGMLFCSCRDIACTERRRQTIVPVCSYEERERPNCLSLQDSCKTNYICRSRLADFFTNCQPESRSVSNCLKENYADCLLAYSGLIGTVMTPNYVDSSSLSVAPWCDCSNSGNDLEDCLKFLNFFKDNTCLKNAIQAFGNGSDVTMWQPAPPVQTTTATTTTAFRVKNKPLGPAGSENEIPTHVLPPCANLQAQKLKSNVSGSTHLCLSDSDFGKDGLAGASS

Neurturin (NTN), species not stated at these places (ligand)
Kd [1]: > 1000 µM
survival of E14 rat spinal motoneurons at 72 hours [2]: 50%
Kd [3]: 0.001 µM

From EP1007666B1
